Data from patent US20100093623A1, “COMPOSITIONS AND METHODS FOR […]-LIKE RECEPTOR ACTIVITY AND USES THEREOF” (Burnham Institute for Medical Research, priority 2008, published 2010).

Tests used:
[1] = biological target: T1, (His)6-NLRP1 (NLR family, pyrin domain-containing 1), purified recombinant full-length protein from Sf21 cells (human) (UniProt Q9C000); test: cell-based or functional assay
T1 sequence: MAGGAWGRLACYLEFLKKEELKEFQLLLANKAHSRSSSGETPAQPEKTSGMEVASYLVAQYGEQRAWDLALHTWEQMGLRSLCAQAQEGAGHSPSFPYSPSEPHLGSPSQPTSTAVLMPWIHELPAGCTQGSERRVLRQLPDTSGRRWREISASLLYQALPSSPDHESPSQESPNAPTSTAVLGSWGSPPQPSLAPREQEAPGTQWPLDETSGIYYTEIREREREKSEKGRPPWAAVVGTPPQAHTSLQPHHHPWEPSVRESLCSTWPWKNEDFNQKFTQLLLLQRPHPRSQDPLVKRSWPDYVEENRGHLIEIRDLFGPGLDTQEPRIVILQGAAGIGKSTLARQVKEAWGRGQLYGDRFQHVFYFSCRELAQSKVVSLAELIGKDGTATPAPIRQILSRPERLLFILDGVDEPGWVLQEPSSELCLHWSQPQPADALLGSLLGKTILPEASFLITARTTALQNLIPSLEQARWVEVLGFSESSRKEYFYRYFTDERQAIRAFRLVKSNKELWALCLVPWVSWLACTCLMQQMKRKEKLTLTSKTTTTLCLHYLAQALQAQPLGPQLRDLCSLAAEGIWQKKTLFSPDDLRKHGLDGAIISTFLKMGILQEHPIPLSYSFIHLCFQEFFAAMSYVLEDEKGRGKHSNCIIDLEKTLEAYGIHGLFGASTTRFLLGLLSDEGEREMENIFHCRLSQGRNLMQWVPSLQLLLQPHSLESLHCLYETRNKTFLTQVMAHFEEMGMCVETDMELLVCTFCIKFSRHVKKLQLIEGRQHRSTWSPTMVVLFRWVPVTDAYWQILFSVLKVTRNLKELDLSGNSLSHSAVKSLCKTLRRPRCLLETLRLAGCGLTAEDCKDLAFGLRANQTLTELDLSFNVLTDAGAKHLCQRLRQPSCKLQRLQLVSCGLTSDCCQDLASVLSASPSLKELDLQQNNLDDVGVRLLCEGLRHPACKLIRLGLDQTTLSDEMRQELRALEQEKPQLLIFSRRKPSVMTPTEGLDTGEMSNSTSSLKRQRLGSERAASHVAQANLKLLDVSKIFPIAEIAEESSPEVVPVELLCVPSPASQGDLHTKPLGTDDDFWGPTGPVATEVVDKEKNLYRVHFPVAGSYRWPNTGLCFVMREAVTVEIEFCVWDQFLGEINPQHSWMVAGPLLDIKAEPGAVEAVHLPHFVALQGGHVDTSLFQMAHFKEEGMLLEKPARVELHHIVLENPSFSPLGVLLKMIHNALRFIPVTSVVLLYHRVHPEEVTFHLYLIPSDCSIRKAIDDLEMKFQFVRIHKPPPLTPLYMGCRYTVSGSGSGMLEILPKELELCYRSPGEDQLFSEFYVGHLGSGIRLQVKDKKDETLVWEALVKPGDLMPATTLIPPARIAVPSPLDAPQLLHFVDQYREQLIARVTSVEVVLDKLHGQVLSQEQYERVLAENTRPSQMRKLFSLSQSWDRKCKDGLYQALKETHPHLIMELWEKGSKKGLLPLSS

[2] = biological target: T1, (His)6-NLRP1 (NLR family, pyrin domain-containing 1), purified recombinant full-length protein from Sf21 cells (human); test: enzyme kinetics of the reconstituted NLRP1 inflammasome (Caspase-1 activity on Ac-WEHD-AMC); Ki from the competitive inhibition equation

Row | Substance | IC50 (concentration to inhibit NLRP1-induced Caspase-1 activity by 50%) [1] [nM] | FITC-ATP binding to NLRP1 (FPA), reduction [1] [%] | Ki [2] [nM]
1 | Bcl-2 Loop peptide 35-83 (synthetic) | 11.4 | – | –
2 | GST-Bcl-2 (Bcl-2 lacking its C-terminal transmembrane domain, ~last 20 amino acids) (from UniProt P08515 1-218; P10415 1-218) | – | 60 | 8.23
